# B1: alpha-Man promoter fragment MD4 (187 bp) (dsDNA)
# DNA 1: GAAGACTTCACAAATCTTGATTTTTGAATACGACCCTTTAGTATTAAGTTTTCCAATTAATCTTGTAGGTCCATTGGCTTTGATTCCCTTTCTTGATTTATCTACAAAAATTTAGGCTATTTATAGAGATTTGGGGTTTATGGTTTAGTACATTCTCTTTCAGTGAACACTCTCAGCAATGGTGGAA
# DNA 2: TTCCACCATTGCTGAGAGTGTTCACTGAAAGAGAATGTACTAAACCATAAACCCCAAATCTCTATAAATAGCCTAAATTTTTGTAGATAAATCAAGAAAGGGAATCAAAGCCAATGGACCTACAAGATTAATTGGAAAACTTAATACTAAAGGGTCGTATTCAAAAATCAAGATTTGTGAAGTCTTC
# Molecular target: RIN (RIPENING INHIBITOR, MADS box) (Solanum lycopersicum, UniProt Q8S4L4 1-242)
# Experiment: EMSA; 10 mM MgCl2; 20 mM HEPES pH 7.5, 20% glycerol, 0.05 ug poly(dI-dC), 10 mM MgCl2, 2.5 mM EDTA, 2.5 mM DTT, 25 mM NaCl, 25 C, 30 min; 6% native PAGE 0.5x TBE
# Details: protein: recombinant; chain copies: 2; label: 32P (alpha-32P dCTP Klenow fill-in); filled-in ends
# Chain of RIN (RIPENING INHIBITOR, MADS box) (Q8S4L4 entry or part of it): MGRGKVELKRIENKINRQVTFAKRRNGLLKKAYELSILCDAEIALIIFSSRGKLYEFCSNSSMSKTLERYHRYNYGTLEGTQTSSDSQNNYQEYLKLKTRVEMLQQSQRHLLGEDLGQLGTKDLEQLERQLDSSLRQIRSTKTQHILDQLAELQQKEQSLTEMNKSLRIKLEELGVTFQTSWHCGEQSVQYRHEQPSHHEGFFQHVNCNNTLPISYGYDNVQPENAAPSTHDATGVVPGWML
binder,measurement,value
B1,binding result,binds

# — paper PMC4720780, “Fruit Ripening Regulation of α-Mannosidase Expression by the MADS Box Transcription Factor RIPENING INHIBITOR and Ethylene”
